Results reported in patent publication US20080219974A1 (published 2008).

B1: HM1.24_H0L0_IgG1_WT (antibody, V domains shown)
VH: QVQLQQSGAELARPGASVKLSCKASGYTFTPYWMQWVKQRPGQGLEWIGSIFPGDGDTRYSQKFKGKATLTADKSSSTAYMQLSILAFEDSAVYYCARGLRRGGYYFDYWGQGTTLTVSS
VL: DIVMTQSHKFMSTSVGDRVSITCKASQDVNTAVAWYQQKPGQSPKLLIYSASNRYTGVPDRITGSGSGTDFTFTISSVQAEDLALYYCQQHYSTPFTFGSGTKLEIKR
B2: HM1.24_H1.1 heavy chain variant with HM1.24_L4 light chain (antibody, human IgG1, kappa, V domains shown)
VH: QVQLVQSGAEVKKPGASVKVSCKASGYTFTPYWMQWVRQAPGQGLEWMGSIFPGEGDTRYSQSFQGQVTISADKSISTAYMELSRLRSDDTAVYYCARGLRRGGYYFDYWGQGTLVTVSS
VL: DIVMTQSPLSLPVTLGQPASISCKASQDVNTAVAWYLQKPGKSPKLLIYSASNRYTGVPDRITGSGSGTDFTLKISRVEAEDVGVYYCQQHYSTPFTFGSGTKLEIKR
B3: HM1.24_H2.4 heavy chain variant with HM1.24_L4 light chain (antibody, human IgG1, kappa, V domains shown)
VH: EVQLVESGGGLVKPGGSLRLSCAASGYTFTPYWMQWVRQAPGKGLEWMGSIFPGDADTRYSQSFQGQVTISADKSISTAYMELSSLRSEDTAVYYCARGLRRGGYYFDYWGQGTLVTVSS
VL: DIVMTQSPLSLPVTLGQPASISCKASQDVNTAVAWYLQKPGKSPKLLIYSASNRYTGVPDRITGSGSGTDFTLKISRVEAEDVGVYYCQQHYSTPFTFGSGTKLEIKR
B4: HM1.24_H2.3 heavy chain variant with HM1.24_L4 light chain (antibody, human IgG1, kappa, V domains shown)
VH: EVQLVESGGGLVKPGGSLRLSCAASGYTFTPYWMQWVRQAPGKGLEWMGSIFPGDSDTRYSQSFQGQVTISADKSISTAYMELSSLRSEDTAVYYCARGLRRGGYYFDYWGQGTLVTVSS
VL: DIVMTQSPLSLPVTLGQPASISCKASQDVNTAVAWYLQKPGKSPKLLIYSASNRYTGVPDRITGSGSGTDFTLKISRVEAEDVGVYYCQQHYSTPFTFGSGTKLEIKR
B5: HM1.24_H2.1 heavy chain variant with HM1.24_L4 light chain (antibody, human IgG1, kappa, V domains shown)
VH: EVQLVESGGGLVKPGGSLRLSCAASGYTFTPYWMQWVRQAPGKGLEWMGSIFPGEGDTRYSQSFQGQVTISADKSISTAYMELSSLRSEDTAVYYCARGLRRGGYYFDYWGQGTLVTVSS
VL: DIVMTQSPLSLPVTLGQPASISCKASQDVNTAVAWYLQKPGKSPKLLIYSASNRYTGVPDRITGSGSGTDFTLKISRVEAEDVGVYYCQQHYSTPFTFGSGTKLEIKR
B6: HM1.24_H1.3 heavy chain variant with HM1.24_L4 light chain (antibody, human IgG1, kappa, V domains shown)
VH: QVQLVQSGAEVKKPGASVKVSCKASGYTFTPYWMQWVRQAPGQGLEWMGSIFPGDSDTRYSQSFQGQVTISADKSISTAYMELSRLRSDDTAVYYCARGLRRGGYYFDYWGQGTLVTVSS
VL: DIVMTQSPLSLPVTLGQPASISCKASQDVNTAVAWYLQKPGKSPKLLIYSASNRYTGVPDRITGSGSGTDFTLKISRVEAEDVGVYYCQQHYSTPFTFGSGTKLEIKR
B7: HM1.24_H1.4 heavy chain variant with HM1.24_L4 light chain (antibody, human IgG1, kappa, V domains shown)
VH: QVQLVQSGAEVKKPGASVKVSCKASGYTFTPYWMQWVRQAPGQGLEWMGSIFPGDADTRYSQSFQGQVTISADKSISTAYMELSRLRSDDTAVYYCARGLRRGGYYFDYWGQGTLVTVSS
VL: DIVMTQSPLSLPVTLGQPASISCKASQDVNTAVAWYLQKPGKSPKLLIYSASNRYTGVPDRITGSGSGTDFTLKISRVEAEDVGVYYCQQHYSTPFTFGSGTKLEIKR
B8: HM1.24_H1.2 heavy chain variant with HM1.24_L4 light chain (antibody, human IgG1, kappa, V domains shown)
VH: QVQLVQSGAEVKKPGASVKVSCKASGYTFTPYWMQWVRQAPGQGLEWMGSIFPGSGDTRYSQSFQGQVTISADKSISTAYMELSRLRSDDTAVYYCARGLRRGGYYFDYWGQGTLVTVSS
VL: DIVMTQSPLSLPVTLGQPASISCKASQDVNTAVAWYLQKPGKSPKLLIYSASNRYTGVPDRITGSGSGTDFTLKISRVEAEDVGVYYCQQHYSTPFTFGSGTKLEIKR
B9: HM1.24_H1L2 (antibody, human IgG1, kappa, V domains shown)
VH: QVQLVQSGAEVKKPGASVKVSCKASGYTFTPYWMQWVRQAPGQGLEWMGSIFPGDGDTRYSQSFQGQVTISADKSISTAYMELSRLRSDDTAVYYCARGLRRGGYYFDYWGQGTLVTVSS
VL: DIVMTQSPSSLSASVGDRVTITCQASQDVNTAVAWYQQKPDQSPKLLIYSASNRYTGVPDRITGSGSGTDFTLTISSLQAEDVAVYYCQQHYSTPFTFGSGTKLEIKR
B10: HM1.24_H0L0 (parent antibody in the flow cytometry screen of Example 3) (antibody, V domains shown)
VH: QVQLQQSGAELARPGASVKLSCKASGYTFTPYWMQWVKQRPGQGLEWIGSIFPGDGDTRYSQKFKGKATLTADKSSSTAYMQLSILAFEDSAVYYCARGLRRGGYYFDYWGQGTTLTVSS
VL: DIVMTQSHKFMSTSVGDRVSITCKASQDVNTAVAWYQQKPGQSPKLLIYSASNRYTGVPDRITGSGSGTDFTFTISSVQAEDLALYYCQQHYSTPFTFGSGTKLEIK
B11: HM1.24_H2L2 (antibody, human IgG1, kappa, V domains shown)
VH: EVQLVESGGGLVKPGGSLRLSCAASGYTFTPYWMQWVRQAPGKGLEWMGSIFPGDGDTRYSQSFQGQVTISADKSISTAYMELSSLRSEDTAVYYCARGLRRGGYYFDYWGQGTLVTVSS
VL: DIVMTQSPSSLSASVGDRVTITCQASQDVNTAVAWYQQKPDQSPKLLIYSASNRYTGVPDRITGSGSGTDFTLTISSLQAEDVAVYYCQQHYSTPFTFGSGTKLEIKR

Molecular target: T1, Human HM1.24 on RPMI 8226 multiple myeloma cells (human, UniProt Q10589 1-161)
Assay: flow cytometry on RPMI 8226 multiple myeloma cells, R-PE anti-human IgG F

T1 sequence (Q10589 1-161 limits assumed): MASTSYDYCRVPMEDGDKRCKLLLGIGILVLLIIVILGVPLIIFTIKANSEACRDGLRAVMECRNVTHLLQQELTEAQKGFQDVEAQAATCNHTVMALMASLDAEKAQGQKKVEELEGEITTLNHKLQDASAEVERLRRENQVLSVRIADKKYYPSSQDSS

Binding result, binds:
B1

Molecular target: T2, His-tagged HM1.24 antigen, residues N49-A163 of the extracellular domain (human, UniProt Q10589 49-163)
T2 sequence: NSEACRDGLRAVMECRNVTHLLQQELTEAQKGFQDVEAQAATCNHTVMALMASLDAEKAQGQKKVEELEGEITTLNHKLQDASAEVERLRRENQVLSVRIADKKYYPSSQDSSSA
Assay: not given

Binding result, binds:
B2
B3
B4
B5
B6
B7
B8

Molecular target: T1, Human HM1.24 on RPMI 8226 multiple …
Assay: flow cytometry on HM1.24+ RPMI 8226 cells

Binding result, binds:
B9
B10
B11
